Laboratory results reported in patent US20110311551A1 (INSERM, published 2011).

Legend:
[1] = molecular target: T1, E2 octapeptide 487-494, WHYPPKPC (Hepatitis C virus); experiment: octapeptides
T1 peptide: WHYPPKPC

[2] = molecular target: T2, E2 octapeptide 479-486, GPDQRPYC (Hepatitis C virus); experiment: octapeptides
T2 peptide: GPDQRPYC

[3] = molecular target: T3, human serum albumin (human, UniProt P02768 25-609); experiment: EIA
T3 construct: also called HSA

[4] = molecular target: T4, E2 region 613-621, YRLWHYPCT (Hepatitis C virus); experiment: overlapping octapeptides
T4 construct: Region found with overlapping octapeptides; also called E2 613-621
T4 peptide: YRLWHYPCT

[5] = molecular target: T5, E1 region 297-306, RHWTTQGCNC (Hepatitis C virus); experiment: overlapping octapeptides
T5 construct: Region found with overlapping octapeptides; also called E1 297-306
T5 peptide: RHWTTQGCNC

[6] = molecular target: T6, peptides corresponding to the E2 region 612-626 (Hepatitis C virus); experiment: overlapping synthetic pentadecapeptides on a membrane, colorimetric immunoassay
T6 construct: 612-626 was counted over to 3-17 on that entry; also called E2 612-626
T6 peptide: PYRLWHYPCTINYTI

[7] = molecular target: T7, peptides corresponding to the E2 region 686-697 (Hepatitis C virus); experiment: as above
T7 construct: 686-697 was counted over to 2-13 on that entry; also called E2 686-697
T7 peptide: STGLIHLHQNIV

[8] = molecular target: T8, peptides corresponding to the 347-356 E1 region (Hepatitis C virus); experiment: as above
T8 construct: 347-356 was counted over to 5-14 on that entry; Made as overlapping pentadecapeptides on a membrane; also called E1 347-356

[9] = molecular target: T9, E2 region 480-494, PDQRPYCWHYPPKPC (Hepatitis C virus); experiment: ELISA with pentadecapeptides
T9 construct: also called E2 480-494; regions 480-494 of E2 as pentadecapeptide
T9 peptide: PDQRPYCWHYPPKPC

T3 sequence (P02768 25-609 limits assumed): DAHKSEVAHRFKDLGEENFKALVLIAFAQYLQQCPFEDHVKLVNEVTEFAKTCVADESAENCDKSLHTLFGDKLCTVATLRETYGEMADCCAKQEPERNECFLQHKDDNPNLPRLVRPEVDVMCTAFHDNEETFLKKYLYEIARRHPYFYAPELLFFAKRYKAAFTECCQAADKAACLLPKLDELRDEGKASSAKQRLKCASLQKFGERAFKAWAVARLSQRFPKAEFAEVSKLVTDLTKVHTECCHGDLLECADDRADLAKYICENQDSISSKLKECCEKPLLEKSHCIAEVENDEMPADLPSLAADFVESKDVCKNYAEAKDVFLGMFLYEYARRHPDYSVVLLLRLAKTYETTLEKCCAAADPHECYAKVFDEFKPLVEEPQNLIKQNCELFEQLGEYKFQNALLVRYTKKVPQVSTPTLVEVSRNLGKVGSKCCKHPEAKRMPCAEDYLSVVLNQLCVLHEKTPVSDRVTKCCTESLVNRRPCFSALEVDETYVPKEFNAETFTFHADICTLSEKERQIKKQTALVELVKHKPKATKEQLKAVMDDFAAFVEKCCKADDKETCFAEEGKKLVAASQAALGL

B1: monoclonal antibody D32.10 (antibody, V domains shown)
VH: EVQLQQSGAELVKPGASVKLSCTPSGFNIKDTYIHWVKQRPEQGLEWIGMINPANGNSNYDPKFQDKATITADTSSNTAYLQLSSLTSEDTAVYYCAEITTDFDVWGAGTTVTVSS
VL: NIVLTQSPPSLAVSLGQRATISCRASESVDSYGNSFLHWYQQKSGQPPKLLIYLASNLESGVPARFSGSGSRTDFTLTIDPLEADDAATYYCQQNNEAPFTFGSGTKLEIKR
notes: also called mAb D32.10; MAb D32.10
[1]
  binding result: binds
[2]
  binding result: binds
[3]
  binding result: no binding
[4]
  binding result: binds
[5]
  binding result: binds
[6]
  binding result: binds
[7]
  binding result: no binding
[8]
  binding result: no binding
[9]
  binding result: binds
